B1: CKAP4 (protein)
chain: MPSAKQRGSKGGHGAASPSEKGAHPSGGADDVAKKPPPAPQQPPPPPAPHPQQHPQQHPQNQAHGKGGHRGGGGGGGKSSSSSSASAAAAAAAASSSASCSRRLGRALNFLFYLALVAAAAFSGWCVHHVLEEVQQVRRSHQDFSRQREELGQGLQGVEQKVQSLQATFGTFESILRSSQHKQDLTEKAVKQGESEVSRISEVLQKLQNEILKDLSDGIHVVKDARERDFTSLENTVEERLTELTKSINDNIAIFTEVQKRSQKEINDMKAKVASLEESEGNKQDLKALKEAVKEIQTSAKSREWDMEALRSTLQTMESDIYTEVRELVSLKQEQQAFKEAADTERLALQALTEKLLRSEESVSRLPEEIRRLEEELRQLKSDSHGPKEDGGFRHSEAFEALQQKSQGLDSRLQHVEDGVLSMQVASARQTESLESLLSKSQEHEQRLAALQGRLEGLGSSEADQDGLASTVRSLGETQLVLYGDVEELKRSVGELPSTVESLQKVQEQVHTLLSQDQAQAARLPPQDFLDRLSSLDNLKASVSQVEADLKMLRTAVDSLVAYSVKIETNENNLESAKGLLDDLRNDLDRLFVKVEKIHEKV
B2: SRSF7 (protein)
chain: MSRYGRYGGETKVYVGNLGTGAGKGELERAFSYYGPLRTVWIARNPPGFAFVEFEDPRDAEDAVRGLDGKVICGSRVRVELSTGMPRRSRFDRPPARRPFDPNDRCYECGEKGHYAYDCHRYSRRRRSRSRSRSHSRSRGRRYSRSRSRSRGRRSRSASPRRSRSISLRRSRSASLRRSRSGSIKGSRYFQSPSRSRSRSRSISRPRSSRSKSRSPSPKRSRSPSGSPRRSASPERMD
B3: CASP14 (protein)
chain: MSNPRSLEEEKYDMSGARLALILCVTKAREGSEEDLDALEHMFRQLRFESTMKRDPTAEQFQEELEKFQQAIDSREDPVSCAFVVLMAHGREGFLKGEDGEMVKLENLFEALNNKNCQALRAKPKVYIIQACRGEQRDPGETVGGDEIVMVIKDSPQTIPTYTDALHVYSTVEGYIAYRHDQKGSCFIQTLVDVFTKRKGHILELLTEVTRRMAEAELVQEGKARKTNPEIQSTLRKRLYLQ
B4: PRR4 (protein)
chain: QSTDNDVNYEDFTFTIPDVEDSSQRPDQGPQRPPPEGLLPRPPGDSGNQDDGPQQRPPKPGGHHRHPPPPPFQNQQRPPRRGHRQLSLPRFPSVSLQEASSFFQRDRPARHPQEQPLW
B5: SLC25A4 (protein)
chain: GDHAWSFLKDFLAGGVAAAVSKTAVAPIERVKLLLQVQHASKQISAEKQYKGIIDCVVRIPKEQGFLSFWRGNLANVIRYFPTQALNFAFKDKYKQLFLGGVDRHKQFWRYFAGNLASGGAAGATSLCFVYPLDFARTRLAADVGKGAAQREFHGLGDCIIKIFKSDGLRGLYQGFNVSVQGIIIYRAAYFGVYDTAKGMLPDPKNVHIFVSWMIAQSVTAVAGLVSYPFDTVRRRMMMQSGRKGADIMYTGTVDCWRKIAKDEGAKAFFKGAWSNVLRGMGGAFVLVLYDEIKKYV
B6: PRDX2 (protein)
chain: ASGNARIGKPAPDFKATAVVDGAFKEVKLSDYKGKYVVLFFYPLDFTFVCPTEIIAFSNRAEDFRKLGCEVLGVSVDSQFTHLAWINTPRKEGGLGPLNIPLLADVTRRLSEDYGVLKTDEGIAYRGLFIIDGKGVLRQITVNDLPVGRSVDEALRLVQAFQYTDEHGEVCPAGWKPGSDTIKPNVDDSKEYFSKHN
B7: PIP (protein)
chain: QDNTRKIIIKNFDIPKSVRPNDEVTAVLAVQTELKECMVVKTYLISSIPLQGAFNYKYTACLCDDNPKTFYWDFYTNRTVQIAAVVDVIRELGICPDDAAVIPIKNNRFYTIEILKVE
B8: CANX (protein)
chain: HDGHDDDVIDIEDDLDDVIEEVEDSKPDTTAPPSSPKVTYKAPVPTGEVYFADSFDRGTLSGWILSKAKKDDTDDEIAKYDGKWEVEEMKESKLPGDKGLVLMSRAKHHAISAKLNKPFLFDTKPLIVQYEVNFQNGIECGGAYVKLLSKTPELNLDQFHDKTPYTIMFGPDKCGEDYKLHFIFRHKNPKTGIYEEKHAKRPDADLKTYFTDKKTHLYTLILNPDNSFEILVDQSVVNSGNLLNDMTPPVNPSREIEDPEDRKPEDWDERPKIPDPEAVKPDDWDEDAPAKIPDEEATKPEGWLDDEPEYVPDPDAEKPEDWDEDMDGEWEAPQIANPRCESAPGCGVWQRPVIDNPNYKGKWKPPMIDNPSYQGIWKPRKIPNPDFFEDLEPFRMTPFSAIGLELWSMTSDIFFDNFIICADRRIVDDWANDGWGLKKAADGAAEPGVVGQMIEAAEERPWLWVVYILTVALPVFLVILFCCSGKKQTSGMEYKKTDAPQPDVKEEEEEKEEEKDKGDEEEEGEEKLEEKQKSDAEEDGGTVSQEEEDRKPKAEEDEILNRSPRNRKPRRE
B9: UQCRC2 (protein)
chain: SLKVAPKVKATAAPAGAPPQPQDLEFTKLPNGLVIASLENYSPVSRIGLFIKAGSRYEDFSNLGTTHLLRLTSSLTTKGASSFKITRGIEAVGGKLSVTATRENMAYTVECLRGDVDILMEFLLNVTTAPEFRRWEVADLQPQLKIDKAVAFQNPQTHVIENLHAAAYRNALANPLYCPDYRIGKVTSEELHYFVQNHFTSARMALIGLGVSHPVLKQVAEQFLNMRGGLGLSGAKANYRGGEIREQNGDSLVHAAFVAESAVAGSAEANAFSVLQHVLGAGPHVKRGSNTTSHLHQAVAKATQQPFDVSAFNASYSDSGLFGIYTISQATAAGDVIKAAYNQVKTIAQGNLSNTDVQAAKNKLKAGYLMSVESSECFLEEVGSQALVAGSYMPPSTVLQQIDSVANADIINAAKKFVSGQKSMAASGNLGHTPFVDEL
B10: ERLIN1 (protein)
chain: MNMTQARVLVAAVVGLVAVLLYASIHKIEEGHLAVYYRGGALLTSPSGPGYHIMLPFITTFRSVQTTLQTDEVKNVPCGTSGGVMIYIDRIEVVNMLAPYAVFDIVRNYTADYDKTLIFNKIHHELNQFCSAHTLQEVYIELFDQIDENLKQALQKDLNLMAPGLTIQAVRVTKPKIPEAIRRNFELMEAEKTKLLIAAQKQKVVEKEAETERKKAVIEAEKIAQVAKIRFQQKVMEKETEKRISEIEDAAFLAREKAKADAEYYAAHKYATSNKHKLTPEYLELKKYQAIASNSKIYFGSNIPNMFVDSSCALKYSDIRTGRESSLPSKEALEPSGENVIQNKESTG
B11: HSD17B12 (protein)
chain: MESALPAAGFLYWVGAGTVAYLALRISYSLFTALRVWGVGNEAGVGPGLGEWAVVTGSTDGIGKSYAEELAKHGMKVVLISRSKDKLDQVSSEIKEKFKVETRTIAVDFASEDIYDKIKTGLAGLEIGILVNNVGMSYEYPEYFLDVPDLDNVIKKMININILSVCKMTQLVLPGMVERSKGAILNISSGSGMLPVPLLTIYSATKTFVDFFSQCLHEEYRSKGVFVQSVLPYFVATKLAKIRKPTLDKPSPETFVKSAIKTVGLQSRTNGYLIHALMGSIISNLPSWIYLKIVMNMNKSTRAHYLKKTKKN
B12: TGM3 (protein)
chain: AALGVQSINWQTAFNRQAHHTDKFSSQELILRRGQNFQVLMIMNKGLGSNERLEFIVSTGPYPSESAMTKAVFPLSNGSSGGWSAVLQASNGNTLTISISSPASAPIGRYTMALQIFSQGGISSVKLGTFILLFNPWLNVDSVFMGNHAEREEYVQEDAGIIFVGSTNRIGMIGWNFGQFEEDILSICLSILDRSLNFRRDAATDVASRNDPKYVGRVLSAMINSNDDNGVLAGNWSGTYTGGRDPRSWNGSVEILKNWKKSGFSPVRYGQCWVFAGTLNTALRSLGIPSRVITNFNSAHDTDRNLSVDVYYDPMGNPLDKGSDSVWNFHVWNEGWFVRSDLGPSYGGWQVLDATPQERSQGVFQCGPASVIGVREGDVQLNFDMPFIFAEVNADRITWLYDNTTGKQWKNSVNSHTIGRYISTKAVGSNARMDVTDKYKYPEGSDQERQVFQKALGKLKPNTPFAATSSMGLETEEQEPSIIGKLKVAGMLAVGKEVNLVLLLKNLSRDTKTVTVNMTAWTIIYNGTLVHEVWKDSATMSLDPEEEAEHPIKISYAQYEKYLKSDNMIRITAVCKVPDESEVVVERDIILDNPTLTLEVLNEARVRKPVNVQMLFSNPLDEPVRDCVLMVEGSGLLLGNLKIDVPTLGPKEGSRVRFDILPSRSGTKQLLADFSCNKFPAIKAMLSIDVAE

Target: T1, B3GNT2 (Homo sapiens, UniProt Q9NY97)
T1 construct: The respective ORFs of candidate genes [CD274 (NM_014143), MCL1 (NM_021960), JUNB (NM_002229), and B3GNT2 (NM_006577)] were synthesized; expressed in transfected cells; host or cells: A375 melanoma cells (lentiviral ORF overexpression)
T1 sequence (Q9NY97 1-397): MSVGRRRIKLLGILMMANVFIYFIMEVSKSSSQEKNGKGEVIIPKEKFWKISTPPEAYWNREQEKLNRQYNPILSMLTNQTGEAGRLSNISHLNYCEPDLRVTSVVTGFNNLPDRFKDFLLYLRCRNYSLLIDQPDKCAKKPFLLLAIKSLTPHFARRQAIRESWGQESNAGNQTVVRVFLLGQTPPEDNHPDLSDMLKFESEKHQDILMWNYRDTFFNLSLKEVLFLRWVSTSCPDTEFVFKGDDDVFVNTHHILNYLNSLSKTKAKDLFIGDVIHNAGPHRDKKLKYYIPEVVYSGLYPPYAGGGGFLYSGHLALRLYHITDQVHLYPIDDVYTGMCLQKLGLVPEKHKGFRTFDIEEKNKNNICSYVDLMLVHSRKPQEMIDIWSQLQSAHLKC
Experiment: Co-IP of FLAG-tagged B3GNT2 followed by mass spectrometry
Type: cell-based
Set-up: C-term IgG / C-term flag: unit not given here
Details: Co-IP with FLAG antibody, C-terminally FLAG-tagged B3GNT2; mass spectrometry count, unit not given
Method in brief: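 FLAG-tagged B3GNT2 immunoprecipitated from cell lysate (HEPES, 1% Triton X-100, 150 mM NaCl) with anti-FLAG versus […], overnight at 4° C, then captured on Protein A/G magnetic beads for 4 h. Two biological replicates per condition. Peptides fractionated and analyzed by nano-LC on an Orbitrap Elite in data-dependent mode.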

Row | Molecule | C-term flag
1 | B1 | 14
2 | B2 | 0
3 | B3 | 9
4 | B4 | 0
5 | B5 | 14
6 | B6 | 5
7 | B7 | 3
8 | B8 | 11
9 | B9 | 4
10 | B10 | 9
11 | B11 | 10
12 | B12 | 5

Same assay, conditions: Co-IP with FLAG antibody, N-terminally FLAG-tagged B3GNT2; mass spectrometry count, unit not given

Row | Molecule | N-term FLAG
13 | B1 | 2
14 | B2 | 2
15 | B3 | 8
16 | B4 | 2
17 | B5 | 9
18 | B6 | 9
19 | B7 | 4
20 | B8 | 6
21 | B9 | 13
22 | B10 | 11
23 | B11 | 10
24 | B12 | 9

Same assay, conditions: Co-IP with IgG control antibody, C-terminally FLAG-tagged B3GNT2; mass spectrometry count, unit not given

Row | Molecule | C-term IgG
25 | B1 | 0
26 | B2 | 0
27 | B3 | 4
28 | B4 | 0
29 | B5 | 0
30 | B6 | 0
31 | B7 | 2
32 | B8 | 0
33 | B9 | 0
34 | B10 | 0
35 | B11 | 0
36 | B12 | 3

Same assay, conditions: Co-IP with IgG control antibody, N-terminally FLAG-tagged B3GNT2; mass spectrometry count, unit not given

Row | Molecule | N-term IgG
37 | B1 | 0
38 | B2 | 0
39 | B3 | 3
40 | B4 | 0
41 | B5 | 0
42 | B6 | 5
43 | B7 | 0
44 | B8 | 0
45 | B9 | 0
46 | B10 | 0
47 | B11 | 0
48 | B12 | 2

Source: patent US20240261333A1, “NOVEL TARGETS FOR ENHANCING ANTI-TUMOR IMMUNITY” (THE BROAD INSTITUTE, INC., priority 2021, published 2024)
